For the assay, the target named is Rad52^ΔN* (Saccharomyces cerevisiae). Kind of assay: mass photometry.

As a reminder, the stoichiometry N is a count of units in the complex or per binding partner.

Turning to “Saccharomyces cerevisiae Rad51 (from UniProt P25454 1-400) (natural protein)”, the stoichiometry N stood at 1.
